# From the nanobody polyreactivity screen of Harvey et al. (2022)
# Experiment: yeast display, Sf9 membrane polyspecificity reagent, FACS + sequencing; frameworks hold sequencing errors
# Method in brief: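 Galactose-induced (36–48 hours) yeast carrying a synthetic nanobody display library were exposed to 10% biotinylated, detergent-solubilized Sf9 membrane reagent at 4 °C for 1 hour. FACS followed streptavidin microbead enrichment, using low and high (top ~1%) gates for expression (anti-HA) and reagent binding (streptavidin). Colony PCR, MiSeq 2 × 250 sequencing and CDR-length filtering followed. Labels for polyreactivity reflect the gate of origin.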
row,Sequence,polyreactivity (PSR sort gate)
1,QVQLVESGGGVVQAGGSLRLSCAASGRIFGPYTMGWYRQAPGKERELVARISRRGGSTYYADSVKGRFTISRDNAKNTVYLQMNSLKPEDTAVYYCARSQAVYDGWFAKFGYWGQGTQVTVSS,low polyreactivity
2,QVQLVESGGGVVQAGGSLRLSCAASGRIFHYNAMGWYRQAPGKERELVAAISTGGSSNYADSVKGRFTISRDNAKNTVYLQMNSLKPEDTAVYYCAADHPVTYPTSKFDYWGQGTQVTVSS,low polyreactivity
3,QVQLVESGGGVVQAGGSLRLSCAASGRIFIWYDMGWYRQAPGKERELVAAITQSDDITYYADSVKGRFTISRDNAKNTVYLQMNSLKPEDTAVYYCAARVFETSTPYGYWGQGTQVTVSS,low polyreactivity
4,QVQLVESGGGVVQAGGSLRLSCAASGRIFRNNAMGWYRQAPGKERVLVAGIRGGGSTYYADSVKGRFTISRDNAKNTVYLQMNSLKPEDTAVYYCNAEASRYVGYGAWQTERDYWGQGTQVTVSS,low polyreactivity
5,QVQLVESGGGVVQAGGSLRLSCAASGRIFSSYAMGWYRQAPGKERELVAAITSGGSTDYADSVKGRFSISRDNAKNTVYLQMNSLKPEDTAVYYCAKAFLAPWTYSPYYMFYYWGQGTQVTVSS,low polyreactivity
6,QVQLVESGGGVVQAGGSLRLSCAASGRIFVRNAMGWYRQAPGKERELVAAISRSGGSTSYADSVKGRFTISRDNAKTTVYLQMNSLKPEDTAVYDCAARYARYQYQYDYWGQGTQVTVSS,high polyreactivity
7,QVQLVESGGGVVQAGGSLRLSCAASGRTFLVTALGWYRQAPGKERELVAVITRGGSTNYADSVKGRFTISRDNAKNTVYLQMNSLKPEDTAVYYCAKQFSPYRSYGPVVRYDYWGQGTQVTVSS,low polyreactivity
8,QVQLVESGGGVVQAGGSLRLSCAASGRTIYFYAMGWYRQAPGKERELVAAITGSGGRTYYADSVKGRFTISRDHAKNTVYLQMNSLKTEDTAVYYCAAVPPPLARLYVAAKRFDSWGQGTQVTVSS,low polyreactivity
9,QVQLVESGGGVVQAGGSLRLSCAASGSIFGVYAMGWYRQAPGQERELVAAIDSGSSTDYADSVKGRFTISRDNAKNTVYLQMNSLKPEDTAGYYCYPLDLAPVDYWGQGTQVTVSS,low polyreactivity
10,QVQLVESGGGVVQAGGSLRLSCAASGSIFPYYVMGWYRQAPGKERELVAVISQSGGSTYYADSVKGRFTISRDNAKNTVYLQMNSLKPEDTAVYYCAAESAYDAYDYWGQGTQVTVSS,high polyreactivity
11,QVQLVESGGGVVQAGGSLRLSCAASGSTFSYNAMGWYRQAPGKERELVAAITSTGRTYYADSVKGRFTISRDNAKNTVYLQMNSLKPEDTAVYYCNKRARSEQYSYNYGYYYWGQGTQVTVSS,high polyreactivity
12,QVQLVESGGGVVQAGGSLRLSCAASGSTFTVNGMGWYRQAPGKERELVAAIVGGDGSTYYADSVKGRFTISRDNAMNTVYLQMNSLKPEDTAVYYCAADPPGFTQYGYWGQGTQVTVSS,low polyreactivity
13,QVQLVESGGGVVQAGGSLRLSCAASGSTFYSYAMGWYRPAPGKERELVAAISWDGGRTYYADSVKGRFTISRDNAQNTVYLQMNSMKPEDTAVYYCAARKGELWFPQGGYNYSGQGTQVTVSS,low polyreactivity
14,QVQLVESGGGVVQAGGSLRLSCAASGSTFYYNAMGWNRQAPGKERELVARISRSGGSTYADSVKGRFTISRDNAKNTVYLQMNSLKPEDTAVYYCNADAYGTPEFTSYAVRYDYWGQGTQVTVSS,low polyreactivity
15,QVQLVESGGGVVQAGGSLRLSCSASGRTLDKNVMGWYRQAPGKERELVAAINTGGRTYYADSVKGRFTISRDNAKNTVYLQMNSLKPEDTAVYYCAKEGHVNPRPTVGGDYWGQGTQVTVSS,low polyreactivity
16,QVQLVESGGGVVQAGGSLRLSFAASGSTFPGNAMGWYRQAPGKERELVASISGGGDSTYYADSVKGRFTISRDNAKNTVYLQMNSLKPEDTADYYCAARSTRGHYTAYDYWGQGTQVTVSS,low polyreactivity
17,QVQLVESGGGVVQAGGSLRVSCAATGSIYYRSAMGWYRQAPGKERELVAAISVSGGSTYYADSVKGRFTISRDNAKITDYLQMNSLKPEDTAVYYCAAVVRYGYEYWGQGTQVTVSS,high polyreactivity
18,QVQLVESGGGVVQAGGTLRLSCAASGSTFPKYAMGWYRQAPGKERELVAAISLSGVRTYYADSVKGRFTISRDNAKNTVYLQMTSLKPEDTAVYYCNAVFDRYPYRYDYWGQGTQVTVSS,high polyreactivity
19,QVQLVESGGGVVQPGGSLSLSCAGSGITFWYYDLVWSRQAPGKERELVATITSSGSTYYADSVKGRFTISRDNAKNTVYLQKNSLKPEDTAVYFCAPQYGYSYYSGRYGYWGQGTQVTVSS,high polyreactivity
20,QVQLVESGGGVVQSGGSLRLSCAASGRTFNHYAMGWYRQAPGKERELVAGITISGGSTYYADSVKGRFTISRDNAKNTVYLQMNSLKPEDTAVYYCNAVYDYYRQSKWTMDYWGQGTQVTVSS,low polyreactivity
21,QVQLVESGGLIVQAGGSLRLSCAASRSTSRYSMGWYRQAPGKERELDAAITRSCGTTYYADSVKGRFTISRDNAKNSVYLQMNSLKPEDTAVYYCATSDRQVKDDYWGQGTQVTVSS,low polyreactivity

row,Sequence,polyreactivity (PSR sort gate)
1,QVQLVESGGRIVQAGGSLRLRCAASGSTFRWYAMGRYRQAPGKERQLVASITWSGGGTYYADSVKGRFTISRDNAKNTVYLQMNSLKPEDTAVYYCNRRTWRYETRGDDYWGQGTQVTVSS,high polyreactivity
2,QVQLVESGGRIVQAGGSLRLSCAASGRIFWLNAMGRYRQAPGKEREFVASITYGSDSTYYADSVKGRFTISRDTATNTVYFQMNSLKPEDTAVYYCNREGWHYGPYGYWGQGTQVTVSS,low polyreactivity
3,QVQLVESGGRIVQAGRSLRLTCAASGRTFRNYAMGWYRQAPGKEREFVAAITSRSSRTYYADSVKGRFTISRDNEKNTVYLQMNSLIPEDTAVYYCARGSELGYYAWVYYWGQGTQVTVSS,high polyreactivity
4,QVQLVESGGRLDQAGGSLRLSCAASGSILSTYAMGWYRQPPVKERELVASISSNAGSTYYADSVKGRFTISLDNAKNTVSLQMNSLKPEDTAVYYCNKVYGGGTYDYWGQGTQVTVSS,low polyreactivity
5,QVQLVESGGRLFQAGGSLRLSCAASRSIFSTYGKGWYRQPPGKERELVAAITSGVGRTNYADSVKGRFTISRDNAKNTVDLQMNSLKPEDTAVNYCAVRSLGTLDVYDLATEYDYWGQGTQVTVSS,low polyreactivity
6,QVQLVESGGRLLQAGGSLRLSCAASGIIFVYYDMGWYRQAPGKERELVAVITESGVSTYYADSVKGRFTISRDNAKKTVYLQMNSLKPEDTAVYYCDTSVDRGLGYWGQGTQVTVSS,low polyreactivity
7,QVQLVESGGRLLQAGGSLRLSCAASGSTISHYAMGWYRQAPGKEWELVATITVTGVRTYYADSVKGRFTISRDNAKNTVYLELNSLKPEDTAVYYCAVRPSTRGAQAQPWMYYWGQGTQVTVSS,low polyreactivity
8,QVQLVESGGRLVQAGGILRLSCAASGRIFNRYAMGWSRQAPGKEREFVARITGSGGRTYYADSVKGRFTISRDNAKNTVYLQMNSLKPEDTAVYYCARDRGYQSGYDFWGQGSQVTVSS,high polyreactivity
9,QVQLVESGGRLVQAGGILRLSCPASGSTFKKYAMGWYRQTPGKERELVASINSSAGSTYYADSVKGRFTISRDNAKNTVYLQMNSLKPEDTAVYYCATCQKVYSGRYDYWGQGTQVTVSS,low polyreactivity
10,QVQLVESGGRLVQAGGSLPLSCAASGFIFRYYAMGWYRQAPGKERELVAAIDYSGGSTNYADSVKGRFTISRDNAKNTVYLQMNSLKPEDTAVYYCNAEYTWHRGYDYWGQGTQVTVSS,low polyreactivity
11,QVQLVESGGRLVQAGGSLRISCAASGNTFVRYAMGWYRQAPGKQSELVASISTSGGSTYYADSVKGRFTISRDNAKNTVYLQMNSLKPQDTAVYYCAARLPRTRYWEDFWGQGTQVSVSS,high polyreactivity
12,QVQLVESGGRLVQAGGSLRLICAASGSICTHNAMGWYRQAPGKERELVADITSSVSSTYYADSVKGRFTISRDNSKNTVDLQMNSLKPEDTSVYYCAGGVGRGMYYWGQGTQVTVSS,low polyreactivity
13,QVQLVESGGRLVQAGGSLRLICAASGSTFYPYAMGWYRQAPGKERELSTDADSVKGRFTISRDNAKNSVYLQMNSLKPEDTAVYYCAALHWRWYDYWGQGTQVTVSS,low polyreactivity
14,QVQLVESGGRLVQAGGSLRLRCAASGFIFLVNAMGWYRQARGKESELVAAITTSGASTYYADSVKGRFTISRDNAKNTVYLQMNSLKPEDTAVYYCAAGSYARPEYGYWGQGTQVTVSS,low polyreactivity
15,QVQLVESGGRLVQAGGSLRLSCAASGFIYTPNTMGWYRQAHRKERELVAAITTNGGRTYYADSVKGRFTISRDNAKNTVYFQMNSVKPEDTAVYYCAARYVSSFGLHAQVWSYYYWGLGTQVTVSS,high polyreactivity
16,QVQLVESGGRLVQAGGSLRLSCAASGFTFARYAMGWYRQAPGKERELVARISSDGGGTDYADSVKGRFTISRDNAKNTVYLQMNSLKPEDTAVYYCYADPYSRFWGPDYGYWGQGTQVTVSS,low polyreactivity
17,QVQLVESGGRLVQAGGSLRLSCAASGFTFPVYAMGWYRQAPGKERELVAVIRLTGGRTYYADSVKGRFTISRDNAKNTVYLQMNSLKPVDTAVYYCAAGSRSGYGYWGQGTQVTVSS,high polyreactivity
18,QVQLVESGGRLVQAGGSLRLSCAASGFTFRYYAMGWYRQAPGKERELVAAITWSGGRTYYADSVKGRFTISRDNAKNTVFLQMNSLKPEDTAVYSSNTPSLWYGEDYWGHGTQVTVSS,high polyreactivity
19,QVQLVESGGRLVQAGGSLRLSCAASGGIFTAYTMGWYRQAPGKESELVAVISSGGGRTYYADSVKGRFTISRDNAKNTVYLQMNSLKPEDTAVYYCNARVYVSANKYDYWGQGTQVTVSS,high polyreactivity
20,QVQLVESGGRLVQAGGSLRLSCAASGHIFFYYTMGRYRPGPGKERELVAGITIGGSTNYADSVKGRFTISRDNAKNTVYLLMNSLKPADTAVYYCNVVKYVYISSYWEYYYWGQGAQVTVSS,low polyreactivity
